According to paper doi:10.1101/2022.08.25.505315 (bioRxiv, 2022):

Target: the molecule itself
Assay: SEC

B1: human malic enzyme 3 (mitochondrial NADP+-dependent malic enzyme 3), residues 46-604 (enzyme, UniProt Q16798 46-604, looked up)
chain: LKKRGYDVTRNPHLNKGMAFTLEERLQLGIHGLIPPCFLSQDVQLLRIMRYYERQQSDLDKYIILMTLQDRNEKLFYRVLTSDVEKFMPIVYTPTVGLACQHYGLTFRRPRGLFITIHDKGHLATMLNSWPEDNIKAVVVTDGERILGLGDLGCYGMGIPVGKLALYTACGGVNPQQCLPVLLDVGTNNEELLRDPLYIGLKHQRVHGKAYDDLLDEFMQAVTDKFGINCLIQFEDFANANAFRLLNKYRNKYCMFNDDIQGTASVAVAGILAALRITKNKLSNHVFVFQGAGEAAMGIAHLLVMALEKEGVPKAEATRKIWMVDSKGLIVKGRSHLNHEKEMFAQDHPEVNSLEEVVRLVKPTAIIGVAAIAGAFTEQILRDMASFHERPIIFALSNPTSKAECTAEKCYRVTEGRGIFASGSPFKSVTLEDGKTFIPGQGNNAYVFPGVALGVIAGGIRHIPDEIFLLTAEQIAQEVSEQHLSQGRLYPPLSTIRDVSLRIAIKVLDYAYKHNLASYYPEPKDKEAFVRSLVYTPDYDSFTLDSYTWPKEAMNVQTV
stoichiometry N: 4
